Substrate: Nc1ncnc2c1ncn2[C@@H]1O[C@H](COP(=O)(O)OP(=O)(O)OP(=O)(O)O)[C@@H](O)[C@H]1O
Assay: purified protein
Conditions: 50 mM Tris-HCl pH 8.0, 20 mM MgCl2, 1 mM EDTA, 37 °C

B1: mBcs1 (full-length mouse Bcs1; mBcs1-His) (Mus musculus) (protein)
chain: MPFSDFVLALKDNPYFGAGFGLVGVGTALAMARKGAQLGLVAFRRHYMITLEVPARDRSYAWLLSWLTRHSTRTQHLSVETSYLQHESGRISTKFEFIPSPGNHFIWYQGKWIRVERNRDMQMVDLQTGTPWESVTFTALGTDRKVFFNILEEARALALQQEEGKTVMYTAVGSEWRTFGYPRRRRPLDSVVLQQGLADRIVKDIREFIDNPKWYIDRGIPYRRGYLLYGPPGCGKSSFITALAGELEHSICLLSLTDSSLSDDRLNHLLSVAPQQSLVLLEDVDAAFLSRDLAVENPIKYQGLGRLTFSGLLNALDGVASTEARIVFMTTNYIDRLDPALIRPGRVDLKEYVGYCSHWQLTQMFQRFYPGQAPSLAENFAEHVLKATSEISPAQVQGYFMLYKNDPMGAVHNIESLR
B1 gave a Km of 40 µM.

— PMC8482623
